Assay results as given in article PMC11750108, “FlbB forms a distinctive ring essential for periplasmic flagellar assembly and motility in Borrelia burgdorferi” (PLOS Pathogens, 2025).

Target: the molecule itself
Assay: SEC-SAXS; purified FLAG-FlbB-His6 at 4 mg/ml, 10 mM HEPES, 140 mM NaCl, pH 7.3; Shodex 802.5 SEC column, SIBYLS beamline 12.3.1; molecular weight from the volume of correlation

B1: FLAG-FlbB-His6 (deleted the first 42 aa from the FlbB) (domain or fragment)
chain: FPEFVRTKLLGETSLVFDHNSNIILDEARLVKEREAIDIKNQQIEKLKEDLKLKEDSLNKLEFELKQKQKDLDLKQKVIDDIINKYNDEEANILQTAVYLMNMPPEDAVKRLEDLNPELAISYMRKIEELSKKEGRLSIVPYWLSLMDSKKAAILIRKMSVSSLE
notes: FlbB, periplasmic flagellar collar protein of Borrelia burgdorferi (205 amino acids); the first 42 aa (with the N-terminal transmembrane helix) deleted; The deletion of the first 42 aa is stated only for the SEC-SAXS sample; Monomer estimated at 20.85 kDa; also called FlbB-6His; source: E. coli codon plus cells; in lysate of mixed cells (pull-downs); purified recombinant (SEC-SAXS, far-western); …
stoichiometry N: 2
